# According to US20260242478A1 (published 2026):
# Where no end group is shown, it is not given here.
# B1: Phage-3356 (Peptide-180 library peptide) (peptide)
# peptide: LSWHCIPEWMCAGF
# modifications: cysteine pairing not given here; also: fused to pIII of bacteriophage
# notes: tested as crude clonal phage supernatant
# B2: Phage-3357 (Peptide-180 library peptide) (peptide)
# peptide: DTIQCKPAWMCVGF
# notes: as for B1
# B3: Phage-3358 (Peptide-180 library peptide) (peptide)
# peptide: VIIKCEPRWMCEGF
# notes: as for B1
# B4: Phage-3359 (Peptide-180 library peptide) (peptide)
# peptide: VESWCIPAWMCTGF
# notes: as for B1
# B5: Phage-3360 (Peptide-180 library peptide) (peptide)
# peptide: FPVRCVPEWMCSGF
# notes: as for B1
# B6: Phage-3361 (Peptide-180 library peptide) (peptide)
# peptide: WMPYCVPHWMCDGF
# notes: as for B1
# B7: Phage-3362 (Peptide-180 library peptide) (peptide)
# peptide: HDLSCVPRWMCDGF
# notes: as for B1
# B8: Phage-3363 (Peptide-180 library peptide) (peptide)
# peptide: EDVLCKPLWMCFGF
# notes: as for B1
# Target: T1, PSMA Fab (006 PSMA Fab) (biotinylated (site not stated))
# T1 construct: In the clonal phage ELISA the biotinylated PSMA Fab was captured on neutravidin coated plates; also called Anti-PSMA Fab
# Assay: clonal phage ELISA on biotinylated PSMA Fab captured on neutravidin, anti-M13 HRP detection, no PSMA
row,Binder,"Phage binding ELISA signal, Anti-PSMA Fab"
1,ESNFCVPAWMCTGF (cysteine pairing not given here; also: fused to pIII of bacteriophage) [Phage-3364],1.82
2,FEMLCRPIWMCTGF [Phage-3365],1.82
3,QLPMCVPRWMCDGW [Phage-3366],1.82
4,DHVMCKPKWMCEGF [Phage-3367],1.82
5,IAVMCKPEWMCVGF [Phage-3368],1.82
6,HTPICVPVWMCAGF (cysteine pairing not given here; also: fused to pIII of bacteriophage) [Phage-3369],1.82
7,LSIKCVPDWMCTGF [Phage-3370],1.81
8,PHAICKPAWMCVGL [Phage-3371],1.81
9,DFAMCRPAWMCGGF (cysteine pairing not given here; also: fused to pIII of bacteriophage) [Phage-3372],1.81
10,GHPICVPSWMCEGF [Phage-3373],1.81
11,IDKMCVPSWMCWGF [Phage-3374],1.81

# Target: T2, PSMA Fab (006 PSMA Fab)
# T2 construct: also called Anti-PSMA Fab
# Assay: phage ELISA: clonal phage supernatant on biotinylated PSMA Fab captured on neutravidin plate, blocking buffer alone; anti-M13 HRP detection;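 note: crude clonal phage supernatants added to wells preincubated with blocking buffer, incubated briefly, bound phage detected with a horseradish-conjugated anti-M13 antibody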
# Protocol: (§1) Clonal phage were harvested as crude supernatants and screened via standard ELISAs. […] Prior to the addition of clonal phage. wells were incubated with blocking buffer and PSMA antigen or blocking buffer alone. Without washing or aspirating, clonal phage supernatants were then added to the wells and incubated for a short time. Wells were then washed followed by detection of bound phage using a horse radish conjugated anti-M13 antibody.
row,Binder,phage binding ELISA signal
1,B1,1.82
2,B2,1.82
3,B3,1.82
4,B4,1.82
5,B5,1.82
6,B6,1.82
7,B7,1.82
8,B8,1.82

# Target: T1, PSMA Fab (006 PSMA Fab)
# Assay: clonal phage ELISA on captured PSMA Fab pre-incubated with PSMA antigen as competitor;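 note: crude clonal phage supernatants added to wells without washing away the PSMA competitor, bound phage detected by HRP-conjugated anti-M13 antibody, reference wells received blocking buffer only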
# Protocol: as §1
row,Binder,"Phage binding ELISA signal, Anti-PSMA Fab with PSMA antigen"
1,ESNFCVPAWMCTGF (cysteine pairing not given here; also: fused to pIII of bacteriophage) [Phage-3364],0.073
2,FEMLCRPIWMCTGF [Phage-3365],0.14
3,QLPMCVPRWMCDGW [Phage-3366],0.129
4,DHVMCKPKWMCEGF [Phage-3367],0.0947
5,IAVMCKPEWMCVGF [Phage-3368],0.0964
6,HTPICVPVWMCAGF (cysteine pairing not given here; also: fused to pIII of bacteriophage) [Phage-3369],0.0746
7,LSIKCVPDWMCTGF [Phage-3370],0.09
8,PHAICKPAWMCVGL [Phage-3371],0.0913
9,DFAMCRPAWMCGGF (cysteine pairing not given here; also: fused to pIII of bacteriophage) [Phage-3372],0.0683
10,GHPICVPSWMCEGF [Phage-3373],0.0862
11,IDKMCVPSWMCWGF [Phage-3374],0.0876

# Target: T2, PSMA Fab (006 PSMA Fab)
# Assay: phage ELISA: clonal phage supernatant on biotinylated PSMA Fab captured on neutravidin plate, wells pre-incubated with PSMA antigen as competitor; anti-M13 HRP detection
# Protocol: as §1
row,Binder,phage binding ELISA signal
1,B1,0.07
2,B2,0.102
3,B3,0.068
4,B4,0.0794
5,B5,0.0748
6,B6,0.119
7,B7,0.0671
8,B8,0.0901
